We go through ten molecules from paper PMC4694050 (Journal of the American Chemical Society, 2015).

Numbering of substitutions follows the chain as printed. In names and notes the source's numbering stands.

Series [1] deals with TIM from chicken muscle. As to conditions: chicken muscle TIM loop replacement mutant; pH 7.5, 25 °C; cited from earlier work.
For series [2], the system named is TIM from chicken muscle. As to conditions: chicken muscle TIM loop replacement mutant; pH 7.5, 25 °C; cited from earlier work. This is another data set of the same source.
Series [3] relates to TIM from chicken muscle. The following applies: cited from earlier work.
Series [4] concerns Triosephosphate Isomerase from Yeast. The format is biochemical, Saccharomyces cerevisiae. The following applies: for GAP kcat: 30 mM triethanolamine pH 7.5, 25 °C.
The test system is the same in series [5]. It counts as biochemical, Saccharomyces cerevisiae. The following applies: isomerization of DHAP; pH 7.5, 25 °C, I = 0.1 (NaCl).
For another series, the system named is yTIM. It counts as biochemical, Saccharomyces cerevisiae. As to conditions: unactivated deprotonation of glycolaldehyde.
Series [6] has as its target T1, Triosephosphate Isomerase from Yeast (Saccharomyces cerevisiae, UniProt P00942, Y208F).
T1 sequence (P00942 2-248 Y208F): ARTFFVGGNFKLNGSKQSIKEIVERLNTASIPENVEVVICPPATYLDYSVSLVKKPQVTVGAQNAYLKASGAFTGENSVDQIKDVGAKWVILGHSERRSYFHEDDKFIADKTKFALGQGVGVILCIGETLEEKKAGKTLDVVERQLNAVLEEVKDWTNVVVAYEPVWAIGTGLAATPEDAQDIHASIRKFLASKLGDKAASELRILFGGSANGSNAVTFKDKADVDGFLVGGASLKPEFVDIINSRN
The format is biochemical.

The target in series [7] is T1, Triosephosphate Isomerase from Yeast. The following applies: isomerization of [l-^2H]-dihydroxyacetone phosphate; cited from earlier work.
The test system of series [8] is ketosteroid isomerase (KSI) from Pseudomonas putida. The following applies: cited from earlier work.
Where [9] appears, read: isomerization of GAP, I = 0.1 (NaCl).

B1: 208-TGAG for 208-YGGS (LRM): 208-TGAG for 208-YGGS loop 7 replacement mutation of TIM from chicken muscle (protein, UniProt P00940 2-248, looked up, variant Y208T G210A S211G)
Triosephosphate isomerase: APRKFFVGGNWKMNGDKKSLGELIHTLNGAKLSADTEVVCGAPSIYLDFARQKLDAKIGVAAQNCYKVPKGAFTGEISPAMIKDIGAAWVILGHSERRHVFGESDELIGQKVAHALAEGLGVIACIGEKLDEREAGITEKVVFEQTKAIADNVKDWSKVVLAYEPVWAIGTGKTATPQQAQEVHEKLRGWLKSHVSDAVAQSTRIITGAGVTGGNCKELASQHDVDGFLVGGASLKPEFVDIINAKH
Consider B1, for which the GAP kcat in the series with TIM from chicken muscle [1] was 16 s^–1. Besides, the DHAP kcat in the series with TIM from chicken muscle [2] was 8.0 s^–1. The “(kcat/Km)E•HPi/Kd” value in the series on TIM from chicken muscle [3] (chicken muscle TIM loop replacement mutant, third-order rate constant) is on record as 95 M^–2 s^–1. Also, the “effect of mutation on [(kcat/Km)E]obs: KC” value with TIM from chicken muscle [3] (chicken muscle TIM) is given as “no change”.

B2: S211G (protein, UniProt P00942 2-248, looked up, variant S211G)
Triosephosphate isomerase: T1 sequence (P00942 2-248 Y208F) with F207Y, S210G
In the case of B2, in [4] (S211G greater than S211A), the “activity relative to S211A TIM” value worked out at 20 fold. Moreover, the GAP kcat in [4] (setting [9]) is given as 7500 ± 500 s^–1. In series [5], this molecule displayed a DHAP kcat of 810 ± 10 s^–1.

B3: Y208S (protein, UniProt P00942 2-248, looked up, variant Y208S)
Triosephosphate isomerase: T1 sequence (P00942 2-248 Y208F) with F207S
In the case of B3, the GAP kcat in series [4] (setting [9]) is recorded as 940 ± 30 s^–1. The same molecule registered a DHAP kcat in [5] of 250 ± 5 s^–1.

B4: wildtype: wildtype triosephosphate isomerase from Saccharomyces cerevisiae (yTIM) (protein, UniProt P00942 2-248, looked up)
Triosephosphate isomerase: T1 sequence (P00942 2-248 Y208F) with F207Y
The molecule B4 came in with a GAP kcat in series [4] (setting [9]) of 8900 ± 700 s^–1. Moreover, the DHAP kcat in [5] is recorded as 860 ± 10 s^–1.

B5: S211A (protein, UniProt P00942 2-248, looked up, variant S211A)
Triosephosphate isomerase: T1 sequence (P00942 2-248 Y208F) with F207Y, S210A
In series [4] (setting [9]), B5 showed a GAP kcat of 2800 ± 100 s^–1. Moreover, the “decrease in (kcat/Km)E compared with wildtype” value with yTIM is on record as 30 fold. Moreover, the DHAP kcat result in series [5] is reported as “linear plot”.

B6: Y208T/S211G (protein, UniProt P00942 2-248, looked up, variant Y208T S211G)
Triosephosphate isomerase: T1 sequence (P00942 2-248 Y208F) with F207T, S210G
Molecule B6 registered a GAP kcat in series [4] (setting [9]) of 520 ± 30 s^–1. In addition, the “GAP kcat/Km (upper value)” value in [4] (isomerization of GAP, pH 7.5, 25 °C, I = 0.1 (NaCl), calculated for total concentration of GAP) was “(7.3 ± 0.8) × 10^5 M^–1 s^–1”. Moreover, in series [4] (isomerization of GAP, pH 7.5, 25 °C, calculated for the reactive carbonyl form, 4% of total GAP), the “GAP kcat/Km (lower value)” value is reported as 1.8 × 10^7 M^–1 s^–1. In [5], the DHAP kcat was determined as 135 ± 5 s^–1 and the “DHAP kcat/Km” value is on record as “(3.4 ± 0.2) × 10^4 M^–1 s^–1”.

B7: Y208T (protein, UniProt P00942 2-248, looked up, variant Y208T)
Triosephosphate isomerase: T1 sequence (P00942 2-248 Y208F) with F207T
The molecule B7 yielded a GAP kcat in series [4] (setting [9]) of 3700 ± 50 s^–1. The same molecule yielded a DHAP kcat in series [5] of 580 ± 10 s^–1.

B8: Y208F: Y208F loop 7 mutant of yeast triosephosphate isomerase (protein, UniProt P00942 2-248, looked up, variant Y208F)
Triosephosphate isomerase: T1 sequence (P00942 2-248 Y208F)
Turning to B8, in series [4], the “reduction in enzyme activity compared to the Y208A and Y208S mutants” value is reported as “ca. 50 fold”. In series [4] (setting [9]), this molecule showed a GAP kcat of 13 ± 1 s^–1. Also, the “reduction in kcat implied by deviation from Figure 7 correlation” value in [6] (kcat for GAP vs Kd^⧧ correlation) was found to be 40 fold. Moreover, the “negative deviation from the correlation in Figure 7” value in [6] (log kcat for GAP vs intrinsic dianion binding energy) was found to be 1.6 log unit. In addition, the “decrease in (kcat/Km)E compared with wildtype” value in the series on yTIM turned out to be 20 fold. The molecule further showed a DHAP kcat in [5] of 4.5 ± 0.3 s^–1. Moreover, in [7], the “primary deuterium kinetic isotope effect kH/kD on kcat/Km” value is 6.

B9: Y208A (protein, UniProt P00942 2-248, looked up, variant Y208A)
Triosephosphate isomerase: T1 sequence (P00942 2-248 Y208F) with F207A
B9 yielded a GAP kcat in series [4] (setting [9]) of 740 ± 10 s^–1. This molecule gave a DHAP kcat in [5] of 210 ± 5 s^–1.

B10: Y16F: Y16F mutant of ketosteroid isomerase (KSI) from Pseudomonas putida (protein, UniProt P07445 1-131, looked up, variant Y16F)
Steroid Delta-isomerase: MNLPTAQEVQGLMARFIELVDVGDIEAIVQMYADDATVEDPFGQPPIHGREQIAAFYRQGLGGGKVRACLTGPVRASHNGCGAMPFRVEMVWNGQPCALDVIDVMRFDEHGRIQTMQAYWSEVNLSVREPQ
With B10, in [8], the falloff in activity was 5000 fold; the “falloff in activity (decrease in kcat/Km) relative to that for Y16A, Y16G, Y16S and Y16T mutants” value is reported as “ca. 100 fold”.
